Laboratory results as given in publication PMC3750474 (2013).

T1: FIV N-terminal capsid domain (feline immunodeficiency virus (FIV))
T1 chain: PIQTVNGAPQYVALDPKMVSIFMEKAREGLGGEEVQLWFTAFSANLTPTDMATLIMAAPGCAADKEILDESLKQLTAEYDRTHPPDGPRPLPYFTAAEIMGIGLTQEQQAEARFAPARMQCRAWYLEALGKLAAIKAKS


Key:
[1] = target: T1, FIV N-terminal capsid domain; test: ITC
[2] = target: HIV-1 M-group (NL4-3) N-terminal capsid domain (HIV-1 M-group (NL4-3)); test: ITC

| Binder | Kd [1] [µM] | Kd [2] [µM] |
| --- | --- | --- |
| cyclophilin domain from human NUP358 (domain or fragment) ELSKETNPVVFFDVCADGEPLGRITMELFSNIVPRTAENFRALCTGEKGFGFKNSIFHRVIPDFVCQGGDITKHDGTGGQSIYGDKFEDENFDVKHTGPGLLSMANQGQNTNNSQFVITLKKAEHLDFKHVVFGFVKDGMDTVKKIESFGSPKGSVCRRITITECGQI | 290 |  |
| NUP358Cyp V61M/V113F (domain or fragment) ELSKETNPVVFFDVCADGEPLGRITMELFSNIVPRTAENFRALCTGEKGFGFKNSIFHRVIPDFMCQGGDITKHDGTGGQSIYGDKFEDENFDVKHTGPGLLSMANQGQNTNNSQFFITLKKAEHLDFKHVVFGFVKDGMDTVKKIESFGSPKGSVCRRITITECGQI |  | 31 |
| NUP358Cyp V113F (domain or fragment) ELSKETNPVVFFDVCADGEPLGRITMELFSNIVPRTAENFRALCTGEKGFGFKNSIFHRVIPDFVCQGGDITKHDGTGGQSIYGDKFEDENFDVKHTGPGLLSMANQGQNTNNSQFFITLKKAEHLDFKHVVFGFVKDGMDTVKKIESFGSPKGSVCRRITITECGQI |  | 92 |
